B2: rhsB1D, intermolecular disulfide-bonded dimeric form of rhsB1-cys344 (other)
chain: MEQLSSANTRFALDLFLALSENNPAGNIFISPFSISSAMAMVFLGTRGNTAAQLSKTFHFNTVEEVHSRFQSLNADINKRGASYILKLANRLYGEKTYNFLPEFLVSTQKTYGADLASVDFQHASEDARKTINQWVKGQTEGKIPELLASGMVDNMTKLVLVNAIYFKGNWKDKFMKEATTNAPFRLNKKDRKTVKMMYQKKKFAYGYIEDLKCRVLELPYQGEELSMVILLPDDIEDESTGLKKIEEQLTLEKLHEWTKPENLDFIEVNVSLPRFKLEESYTLNSDLARLGVQDLFNSSKADLSGMSGARDIFISKIVHKSFVEVNEEGTEAAAATAGIATFCMLMPEENFTADHPFLFFIRHNSSGSILFLGRFSSP
modifications: intermolecular disulfide bond Cys-344:Cys-344 between the two monomers
B7: rhsB1M*, post-translationally modified (oxidized) monomeric form of rhsB1-cys344 (other)
chain: MEQLSSANTRFALDLFLALSENNPAGNIFISPFSISSAMAMVFLGTRGNTAAQLSKTFHFNTVEEVHSRFQSLNADINKRGASYILKLANRLYGEKTYNFLPEFLVSTQKTYGADLASVDFQHASEDARKTINQWVKGQTEGKIPELLASGMVDNMTKLVLVNAIYFKGNWKDKFMKEATTNAPFRLNKKDRKTVKMMYQKKKFAYGYIEDLKCRVLELPYQGEELSMVILLPDDIEDESTGLKKIEEQLTLEKLHEWTKPENLDFIEVNVSLPRFKLEESYTLNSDLARLGVQDLFNSSKADLSGMSGARDIFISKIVHKSFVEVNEEGTEAAAATAGIATFCMLMPEENFTADHPFLFFIRHNSSGSILFLGRFSSP
modifications: Cys-344 in an irreversibly oxidized state (chemical nature of the modification not determined)
B8: human neutrophil cathepsin G (enzyme, UniProt P08311 21-244, looked up)
chain: IIGGRESRPHSRPYMAYLQIQSPAGQSRCGGFLVREDFVLTAAHCWGSNINVTLGAHNIQRRENTQQHITARRAIRHPQYNQRTIQNDIMLLQLSRRVRRNRNVNPVALPRAQEGLRPGTLCTVAGWGRVSMRRGTDTLREVQLRVQRDRQCLRIFGSYDPRRQICVGDRRERKAAFKGDSGGPLLCNNVAHGIVSYGKSSGVPPEVFTRVSSFLPWIRTTMRS
notes: Bought purified enzyme; also called CatG

Experiments:
[1] = target: T1, human neutrophil elastase (human, UniProt P08246 30-247, limits assumed); assay: cell-based or functional assay
T1 sequence (looked up): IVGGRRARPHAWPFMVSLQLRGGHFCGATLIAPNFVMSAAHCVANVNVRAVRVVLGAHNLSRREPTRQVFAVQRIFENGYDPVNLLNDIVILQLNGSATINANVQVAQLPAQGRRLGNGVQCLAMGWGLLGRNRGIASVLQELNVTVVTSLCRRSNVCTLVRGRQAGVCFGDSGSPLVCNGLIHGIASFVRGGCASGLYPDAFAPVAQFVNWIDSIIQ

[2] = target: TLCK-treated bovine alpha chymotrypsin (bovine, UniProt P00766 1-13; P00766 16-146; P00766 149-245); assay: cell-based or functional assay
[3] = target: porcine pancreatic elastase (porcine, UniProt P00772 27-266); assay: cell-based or functional assay
[4] = target: B8; assay: cell-based or functional assay
neutrophil proteinase 3 = target: T2, neutrophil proteinase 3 (UniProt P24158 28-248, limits assumed); assay: cell-based or functional assay
T2 sequence (looked up): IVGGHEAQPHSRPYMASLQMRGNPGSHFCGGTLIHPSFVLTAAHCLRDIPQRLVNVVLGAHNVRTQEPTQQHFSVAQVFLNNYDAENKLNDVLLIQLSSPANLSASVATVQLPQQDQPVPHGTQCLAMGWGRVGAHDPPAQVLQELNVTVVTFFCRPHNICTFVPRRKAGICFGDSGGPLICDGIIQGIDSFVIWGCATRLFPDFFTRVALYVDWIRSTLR

[5] = target: B2; assay: SDS-PAGE of enzyme:serpin complexes, no 2-ME
[6] = target: B7; assay: SDS-PAGE of enzyme:serpin complexes, no 2-ME

Chain of porcine pancreatic elastase (P00772 27-266): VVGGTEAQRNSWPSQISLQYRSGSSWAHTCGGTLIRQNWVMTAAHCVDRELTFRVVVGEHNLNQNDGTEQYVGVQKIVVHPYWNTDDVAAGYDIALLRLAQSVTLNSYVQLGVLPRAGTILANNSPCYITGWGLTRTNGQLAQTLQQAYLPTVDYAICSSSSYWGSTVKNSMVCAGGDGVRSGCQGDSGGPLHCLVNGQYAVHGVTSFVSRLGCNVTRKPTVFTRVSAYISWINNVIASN

B1: recombinant human serpin B1, wild type (rhsB1-cys344), reduced active monomer (other)
chain: MEQLSSANTRFALDLFLALSENNPAGNIFISPFSISSAMAMVFLGTRGNTAAQLSKTFHFNTVEEVHSRFQSLNADINKRGASYILKLANRLYGEKTYNFLPEFLVSTQKTYGADLASVDFQHASEDARKTINQWVKGQTEGKIPELLASGMVDNMTKLVLVNAIYFKGNWKDKFMKEATTNAPFRLNKKDRKTVKMMYQKKKFAYGYIEDLKCRVLELPYQGEELSMVILLPDDIEDESTGLKKIEEQLTLEKLHEWTKPENLDFIEVNVSLPRFKLEESYTLNSDLARLGVQDLFNSSKADLSGMSGARDIFISKIVHKSFVEVNEEGTEAAAATAGIATFCMLMPEENFTADHPFLFFIRHNSSGSILFLGRFSSP
[1]
  stoichiometry of inhibition (SOI): ~2.1 molar ratio inhibitor:enzyme
[2]
  inhibition of chymotrypsin, monomer against dimer: 2 fold more effective than rhsB1D
  stoichiometry of inhibition (SOI), with 2-ME: ~0.5 molar ratio inhibitor:enzyme
[3]
  amount of purified protein to fully inhibit PPE (typically 160 nM, 200 uL, +40 mM 2-ME): 1 µg
[4]
  SOI with CatG against SOI with BC: ~2 fold of the SOI with BC
  inhibition of CatG, reduced dimer against unreduced dimer: ~2 fold against the unreduced dimer
  inhibition of cathepsin G, monomer against dimer: 2 fold more effective than rhsB1D

## B2
[2]
  stoichiometry of inhibition (SOI), no 2-ME: ~1 molar ratio inhibitor:enzyme
[4]
  SOI with CatG against SOI with BC: ~2 fold of the SOI with BC

B3: human serpin B1 C344V variant (other)
chain: MEQLSSANTRFALDLFLALSENNPAGNIFISPFSISSAMAMVFLGTRGNTAAQLSKTFHFNTVEEVHSRFQSLNADINKRGASYILKLANRLYGEKTYNFLPEFLVSTQKTYGADLASVDFQHASEDARKTINQWVKGQTEGKIPELLASGMVDNMTKLVLVNAIYFKGNWKDKFMKEATTNAPFRLNKKDRKTVKMMYQKKKFAYGYIEDLKCRVLELPYQGEELSMVILLPDDIEDESTGLKKIEEQLTLEKLHEWTKPENLDFIEVNVSLPRFKLEESYTLNSDLARLGVQDLFNSSKADLSGMSGARDIFISKIVHKSFVEVNEEGTEAAAATAGIATFVMLMPEENFTADHPFLFFIRHNSSGSILFLGRFSSP
[3]
  amount of purified protein to fully inhibit PPE (typically 160 nM, 200 uL, +40 mM 2-ME): 1.5 µg

B4: human serpin B1 C344A variant (other)
chain: MEQLSSANTRFALDLFLALSENNPAGNIFISPFSISSAMAMVFLGTRGNTAAQLSKTFHFNTVEEVHSRFQSLNADINKRGASYILKLANRLYGEKTYNFLPEFLVSTQKTYGADLASVDFQHASEDARKTINQWVKGQTEGKIPELLASGMVDNMTKLVLVNAIYFKGNWKDKFMKEATTNAPFRLNKKDRKTVKMMYQKKKFAYGYIEDLKCRVLELPYQGEELSMVILLPDDIEDESTGLKKIEEQLTLEKLHEWTKPENLDFIEVNVSLPRFKLEESYTLNSDLARLGVQDLFNSSKADLSGMSGARDIFISKIVHKSFVEVNEEGTEAAAATAGIATFAMLMPEENFTADHPFLFFIRHNSSGSILFLGRFSSP
[3]
  amount of purified protein to fully inhibit PPE (typically 160 nM, 200 uL, +40 mM 2-ME): 1 µg

B5: peroxynitrite oxidized (inactivated) wild-type rhsB1 (other)
chain: MEQLSSANTRFALDLFLALSENNPAGNIFISPFSISSAMAMVFLGTRGNTAAQLSKTFHFNTVEEVHSRFQSLNADINKRGASYILKLANRLYGEKTYNFLPEFLVSTQKTYGADLASVDFQHASEDARKTINQWVKGQTEGKIPELLASGMVDNMTKLVLVNAIYFKGNWKDKFMKEATTNAPFRLNKKDRKTVKMMYQKKKFAYGYIEDLKCRVLELPYQGEELSMVILLPDDIEDESTGLKKIEEQLTLEKLHEWTKPENLDFIEVNVSLPRFKLEESYTLNSDLARLGVQDLFNSSKADLSGMSGARDIFISKIVHKSFVEVNEEGTEAAAATAGIATFCMLMPEENFTADHPFLFFIRHNSSGSILFLGRFSSP
modifications: oxidized by peroxynitrite (Cys-344 per the filing; chemical nature not determined)
Neutrophil proteinase 3
  loss of PR3 inhibitory activity, 2-fold molar excess of inhibitor: ~40 % of inhibitory activity lost

B6: human serpin B1 C344G variant (other)
chain: MEQLSSANTRFALDLFLALSENNPAGNIFISPFSISSAMAMVFLGTRGNTAAQLSKTFHFNTVEEVHSRFQSLNADINKRGASYILKLANRLYGEKTYNFLPEFLVSTQKTYGADLASVDFQHASEDARKTINQWVKGQTEGKIPELLASGMVDNMTKLVLVNAIYFKGNWKDKFMKEATTNAPFRLNKKDRKTVKMMYQKKKFAYGYIEDLKCRVLELPYQGEELSMVILLPDDIEDESTGLKKIEEQLTLEKLHEWTKPENLDFIEVNVSLPRFKLEESYTLNSDLARLGVQDLFNSSKADLSGMSGARDIFISKIVHKSFVEVNEEGTEAAAATAGIATFGMLMPEENFTADHPFLFFIRHNSSGSILFLGRFSSP
[3]
  amount of purified protein to fully inhibit PPE (typically 160 nM, 200 uL, +40 mM 2-ME): 3.5 µg

## B7
[1]
  stoichiometry of inhibition (SOI), with 2-ME: ~13 molar ratio inhibitor:enzyme
[2]
  stoichiometry of inhibition (SOI), with or without 2-ME: ~3 molar ratio inhibitor:enzyme

## B8
[5]
  binding result: binds
[6]
  binding result: binds

From patent publication US20220267412A1 (SERPLUS TECHNOLOGY, published 2022)
